The text below walks through data of paper PMC11077047, “Activation of zinc uptake regulator by zinc binding to three regulatory sites”.

Series [1] deals with T1, Zur (ScZur) wild type (Streptomyces coelicolor) (UniProt Q9L2H5).
T1 sequence: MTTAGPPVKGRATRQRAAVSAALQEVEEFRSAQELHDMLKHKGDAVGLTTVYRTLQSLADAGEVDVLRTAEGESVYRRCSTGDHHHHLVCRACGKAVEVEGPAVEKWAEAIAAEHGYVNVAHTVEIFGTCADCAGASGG
Briefly: DNase I footprinting. The note with it: ITC: 20 mM HEPES pH 7.8, 150 mM NaCl, 0.5 mM TCEP, 25 C. EMSA: 20 mM Tris-HCl pH 7.8, 150 mM NaCl, 5 mM DTT, 0.1 mg/ml BSA, 5% glycerol, 0.1 ug poly(dI-dC) per …. Background: Mobility shift assays separate free from complexed probe on a gel.

The target of series [2] is T2, Zur H36A H36A (Streptomyces coelicolor) (UniProt Q9L2H5).
T2 sequence: T1 sequence with H36A
Briefly: DNase I footprinting. The note with it: ITC: 20 mM HEPES pH 7.8, 150 mM NaCl, 0.5 mM TCEP, 25 C. EMSA: 20 mM Tris-HCl pH 7.8, 150 mM NaCl, 5 mM DTT, 0.1 mg/ml BSA, 5% glycerol, 0.1 ug poly(dI-dC) per ….

The target in series [3] is T3, Zur (ScZur) wild type (Streptomyces coelicolor, UniProt Q9L2H5 1-139).
T3 sequence: T1 sequence
Briefly: EMSA; 400 nM Zur, 0-5 uM zinc; saturating state switched (tetramer); ITC: 20 mM HEPES pH 7.8, 150 mM NaCl, 0.5 mM TCEP, 25 C. EMSA: 20 mM Tris-HCl pH 7.8, 150 mM NaCl, 5 mM DTT, 0.1 mg/ml BSA, 5% glycerol, 0.1 ug poly(dI-dC) per. The note with it: protein: recombinant; chain copies: 2; label: 6-FAM; blunt.

The target in series [4] is T4, Zur H36A (Streptomyces coelicolor, UniProt Q9L2H5 1-139, H36A).
T4 sequence: T1 sequence with H36A
Briefly: ITC; 4.0 eq Zn2+ per Zur dimer; N=2.0 dimers per DNA; K=3.3e5 M-1; ITC: 20 mM HEPES pH 7.8, 150 mM NaCl, 0.5 mM TCEP, 25 C. EMSA: 20 mM Tris-HCl pH 7.8, 150 mM NaCl, 5 mM DTT, 0.1 mg/ml BSA, 5% glycerol, 0.1 ug poly(dI-dC) per. The settings on record: protein: recombinant; chain copies: 2; label: 6-FAM in EMSA; blunt. For orientation: ITC needs no label: the signal is the heat of the interaction.

Series [5] concerns the target T3, Zur (ScZur) wild type. Put plainly: ITC; 4.0 eq Zn2+ per Zur dimer; N=2.1 dimers per DNA; K=8.7e5 M-1; ITC: 20 mM HEPES pH 7.8, 150 mM NaCl, 0.5 mM TCEP, 25 C. EMSA: 20 mM Tris-HCl pH 7.8, 150 mM NaCl, 5 mM DTT, 0.1 mg/ml BSA, 5% glycerol, 0.1 ug poly(dI-dC) per. The note with it: protein: recombinant; chain copies: 2; label: 6-FAM in EMSA; blunt.
Series [6] has as its target T3, Zur (ScZur) wild type. Briefly: EMSA; 400 nM Zur, 0-5 uM zinc; saturating state switched (hexamer); ITC: 20 mM HEPES pH 7.8, 150 mM NaCl, 0.5 mM TCEP, 25 C. EMSA: 20 mM Tris-HCl pH 7.8, 150 mM NaCl, 5 mM DTT, 0.1 mg/ml BSA, 5% glycerol, 0.1 ug poly(dI-dC) per. The settings on record: protein: recombinant; chain copies: 2; label: 6-FAM; blunt.
The target of series [7] is T4, Zur H36A. Briefly: ITC; 4.0 eq Zn2+ per Zur dimer; N=3.1 dimers per DNA; K=2.6e5 M-1; ITC: 20 mM HEPES pH 7.8, 150 mM NaCl, 0.5 mM TCEP, 25 C. EMSA: 20 mM Tris-HCl pH 7.8, 150 mM NaCl, 5 mM DTT, 0.1 mg/ml BSA, 5% glycerol, 0.1 ug poly(dI-dC) per. The settings on record: protein: recombinant; chain copies: 2; label: 6-FAM in EMSA; blunt.
For series [8], the target named is T3, Zur (ScZur) wild type. Put plainly: ITC; 4.0 eq Zn2+ per Zur dimer; N=3.1 dimers per DNA; K=1.8e6 M-1; ITC: 20 mM HEPES pH 7.8, 150 mM NaCl, 0.5 mM TCEP, 25 C. EMSA: 20 mM Tris-HCl pH 7.8, 150 mM NaCl, 5 mM DTT, 0.1 mg/ml BSA, 5% glycerol, 0.1 ug poly(dI-dC) per. The settings on record: protein: recombinant; chain copies: 2; label: 6-FAM in EMSA; blunt.

Residue numbers refer to the chain shown, from its start.

As to “CTCCTCGTGTGTACCGGCGTCCGGCGACCCGGCGCCCGGATGCCAGTCAACTACGGGTAGGGGGTATCGGGCAACGCGGCACTGAACACCGTTGTCATGTGCCTTGACCTGCGGAAACGTTTCGCAGGTCAGAGTGTTGCGAGGATGCGGAGGGTGCGGCTTCCGCCGTCAGGGGGACCGGTCCGACGGGGCTCGTCCTGACCCTGTGCGAACAACGGCGGACACTGTGCGATGTCCGCGATGCCCGGTCTGGGGGCGCGGTTTGTC (double strand) [zitB promoter 267 bp footprinting probe]”, the binding result in series [1] is on record as “binds”; in series [2], “binds more weakly”.

B1: zitB zurbox with znuA flanks (4 nt each) (dsDNA)
DNA 1: CAAGGTTGTTGACAACGGTGTTCATATTCGCGT
DNA 2: ACGCGAATATGAACACCGTTGTCAACAACCTTG
For B1, the binding result in the series with Zur (ScZur) wild type [3] is recorded as “binds”.

B2: znuA 33 bp (zurbox site 1) (dsDNA)
DNA 1: TCCGCTTGTTGACAACGGTTTCCATATTTGTTG
DNA 2: CAACAAATATGGAAACCGTTGTCAACAAGCGGA
As for B2, the equilibrium dissociation constant (Kd) in the series with Zur H36A [4] worked out at 3000 ± 900 nM; in the series with Zur (ScZur) wild type [5] it was 1200 ± 200 nM.

B3: znuA zurbox with zitB flanks (4 nt each) (dsDNA)
DNA 1: TCCGCCACATGACAACGGTTTCCAGTGCTGTTG
DNA 2: CAACAGCACTGGAAACCGTTGTCATGTGGCGGA
Turning to B3, the binding result with Zur (ScZur) wild type [6] is on record as “binds”.

B4: zitB 33 bp (dsDNA)
DNA 1: CAAGGCACATGACAACGGTGTTCAGTGCCGCGT
DNA 2: ACGCGGCACTGAACACCGTTGTCATGTGCCTTG
For B4, the Kd with Zur H36A [7] amounted to 3900 ± 1000 nM; with Zur (ScZur) wild type [8], 600 ± 100 nM.

By Kd is commonly meant the free concentration of one partner at which half of the binding sites on the other are occupied at equilibrium, for simple one-to-one binding.
